Laboratory results: US20230183379A1 (INSERM INSTITUT NATIONAL DE LA SANT ET DE LA RECHERCHE M …, published 2023)
Blank lines part the entries; values can stand above or below the binder they belong to.

Key:
[1] = target: T1, transferrin receptor 1 (TfR1), mouse (mouse, UniProt Q62351 1-763); assay: FACS on mouse P815 cells, anti-human IgG1-FITC
T1 construct: whole, on cells; also called mouse TfR1

[2] = target: T2, transferrin receptor 1 (TfR1), human (human, UniProt P02786 1-760); assay: FACS on human Raji cells, anti-human IgG1-FITC
T2 construct: whole, on cells; always tested on cells; also called human TfR1; native TfR1
T2 sequence (P02786 whole entry): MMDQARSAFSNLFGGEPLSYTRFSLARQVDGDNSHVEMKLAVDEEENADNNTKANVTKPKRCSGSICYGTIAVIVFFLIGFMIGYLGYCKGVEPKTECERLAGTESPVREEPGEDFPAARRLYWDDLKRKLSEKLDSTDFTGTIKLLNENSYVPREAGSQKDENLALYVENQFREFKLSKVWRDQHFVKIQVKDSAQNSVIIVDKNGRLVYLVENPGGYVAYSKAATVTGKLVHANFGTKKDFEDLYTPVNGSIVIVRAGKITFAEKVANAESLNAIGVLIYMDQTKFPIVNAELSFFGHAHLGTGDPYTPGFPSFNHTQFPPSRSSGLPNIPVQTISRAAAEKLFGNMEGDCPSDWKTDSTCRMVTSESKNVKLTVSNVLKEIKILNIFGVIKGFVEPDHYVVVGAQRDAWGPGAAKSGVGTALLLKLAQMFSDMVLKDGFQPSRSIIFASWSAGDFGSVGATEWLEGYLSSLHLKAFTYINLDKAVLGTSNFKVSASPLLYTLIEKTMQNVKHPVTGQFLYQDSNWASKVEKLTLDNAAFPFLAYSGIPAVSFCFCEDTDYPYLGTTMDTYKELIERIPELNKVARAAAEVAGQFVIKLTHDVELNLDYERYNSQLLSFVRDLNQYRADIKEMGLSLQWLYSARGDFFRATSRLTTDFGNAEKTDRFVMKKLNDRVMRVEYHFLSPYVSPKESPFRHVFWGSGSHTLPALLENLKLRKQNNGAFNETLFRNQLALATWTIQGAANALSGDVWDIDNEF

[3] = target: T2, transferrin receptor 1 (TfR1), human; assay: cell-based or functional assay
[4] = target: T1, transferrin receptor 1 (TfR1), mouse; assay: FACS on mouse P815 cells at 4 °C
[5] = target: T2, transferrin receptor 1 (TfR1), human; assay: FACS on Raji cells at 4 °C
Experimental: All incubation steps were done on ice. Raji cells (5×10^5 cells) were resuspended in 100 μL of FACS buffer [PBS, 1% FBS] containing various concentrations of the primary antibody for 1 h, washed twice with FACS buffer, and then incubated with the suitable fluorescent secondary antibody. After a final wash, cells were analyzed by FACS. The apparent affinity was determined using the GraphPad software.

mouse IL-6 = target: T3, mouse IL-6 (mouse, UniProt P08505 25-211); assay: ELISA on adsorbed recombinant mouse IL-6, pH 7.4, 40 nM antibody
T3 construct: Bought recombinant protein; also called Recombinant mouse IL-6 (Peprotech, 216-16)
T3 sequence (looked up): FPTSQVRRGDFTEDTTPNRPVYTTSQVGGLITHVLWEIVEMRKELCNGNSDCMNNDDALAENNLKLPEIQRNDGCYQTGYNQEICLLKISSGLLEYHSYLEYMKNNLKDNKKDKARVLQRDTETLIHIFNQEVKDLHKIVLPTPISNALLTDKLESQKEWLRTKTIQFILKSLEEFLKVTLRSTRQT

[6] = target: T2, transferrin receptor 1 (TfR1), human; assay: FACS on Raji cells at 4 °C, anti-human IgG (Fc specific)-FITC

T1 sequence (Q62351 whole entry): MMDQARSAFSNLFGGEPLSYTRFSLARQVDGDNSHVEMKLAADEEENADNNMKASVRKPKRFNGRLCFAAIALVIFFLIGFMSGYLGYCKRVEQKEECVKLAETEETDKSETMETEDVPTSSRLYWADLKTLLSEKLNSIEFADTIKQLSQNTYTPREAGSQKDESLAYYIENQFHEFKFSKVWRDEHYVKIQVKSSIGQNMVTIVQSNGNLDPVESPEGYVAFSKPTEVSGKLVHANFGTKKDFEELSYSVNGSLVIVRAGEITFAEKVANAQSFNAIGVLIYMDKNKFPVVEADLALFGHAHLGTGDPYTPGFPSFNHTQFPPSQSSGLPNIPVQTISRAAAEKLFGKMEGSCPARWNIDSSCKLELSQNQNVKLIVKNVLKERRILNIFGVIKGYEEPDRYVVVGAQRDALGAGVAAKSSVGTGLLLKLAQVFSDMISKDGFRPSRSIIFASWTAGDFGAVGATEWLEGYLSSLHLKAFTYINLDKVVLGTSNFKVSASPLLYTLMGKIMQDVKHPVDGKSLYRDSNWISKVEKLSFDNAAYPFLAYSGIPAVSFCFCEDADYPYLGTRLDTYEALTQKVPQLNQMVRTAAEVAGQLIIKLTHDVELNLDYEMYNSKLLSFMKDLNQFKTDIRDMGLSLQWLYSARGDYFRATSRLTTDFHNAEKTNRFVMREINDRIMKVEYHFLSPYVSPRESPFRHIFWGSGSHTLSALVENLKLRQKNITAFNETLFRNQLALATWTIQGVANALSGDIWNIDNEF

binding result [1]: no binding
B1: H7-IgG1 (full length human IgG1 anti-TfR1) (antibody, V domains shown)
VH: QVQLQESGGGVVQPGRSLRLSCAASRFTFSSYAMHWVRQAPGKGLEWVAVISYDGSNKYYADSVKGRFTISRDNSKNTLYLQMNSLRAEDTAVYYCARDLSGYGDYPDYWGQGTLVTVSS
VL: SELTQDPAVSVALGQTVRITCQGDSLRSYYASWYQQKPGQAPVLVMYGRNERPSGVPDRFSGSKSGTSASLAISGLQPEDEANYYCAGWDDSLTGPVFGGGTKLTVLG
notes: also called H7-anti-TfR1 IgG1

binding result [2]: binds
B2: F2 scFv2-Fc (Fc fusion)
chain: QVQLQQSGGGVVQPGGSLRLSCAASEFTFSASGMHWVRQAPGKGLEWMAFIAYDGNQKFYADSVKGRFTISRDNSKNTLYLQMDSLRGEDTAVYYCAKEMQREGYFDYWGQGTLVTVSSGGGGSGGGGSGGGGSNFMLTQDPAVSVALGQTVRITCQGDSLRSYYASWYQQKPGQAPVLVIYGKNNRPSGIPDRFSGSKSGNSASLDISGLQSEDEADYYCATWDDNLSGPIFGGGTKVTVLG
notes: Bivalent (scFv)2-Fc; also called F2-Fc; not shown: Fc fragment of human IgG1 (pFUSE-hFc2(IL2ss) vector)

B3: H7-scFv2 (50 kD dimeric (scFv)2 H7 antibody) (scFv)
scFv: QVQLQESGGGVVQPGRSLRLSCAASRFTFSSYAMHWVRQAPGKGLEWVAVISYDGSNKYYADSVKGRFTISRDNSKNTLYLQMNSLRAEDTAVYYCARDLSGYGDYPDYWGQGTLVTVSSGGGGSGGGGSGGGGSSELTQDPAVSVALGQTVRITCQGDSLRSYYASWYQQKPGQAPVLVMYGRNERPSGVPDRFSGSKSGTSASLAISGLQPEDEANYYCAGWDDSLTGPVFGGGTKLTVLG
ERY-1 cell viability inhibition, IC50 [3]: 2 nM

EC50 [4]: 0.8 nM
B4: H7 scFv2-Fc (H7-Fc) (Fc fusion)
chain: B3 scFv
notes: Bivalent 100 kD (scFv)2-Fc made in HEK-293 T cells; not shown: Fc fragment of human IgG1 (pFUSE-hFc2(IL2ss) vector)

B5: H7-scFv (monovalent) (scFv)
scFv: B3 scFv
ERY-1 cell viability inhibition, IC50 [3]: 200 nM

EC50 [5]: 30.1 nM
B6: scFv-Fc bispecific antibody (anti-TfR1 scFv / anti-IL-6 scFv, knob into hole Fc) (bispecific antibody)
chain 1: B3 scFv
chain 2: EVQLVQSGGGVVQPGESLRLSCAASGFTFSSYSMNWVRQAPGKGLEWVSVIYSGGSTYYADSVKGRFTISRDNSKNTLYLQMNSLRAEDTAVYYCAREVYHSSGYDDAFDIWGRGTMVTVSSGGGGSGGGGSGGGGSDIQMTQSPSTLSASIGDRVTITCRASEGIYHWLAWYQQKPGKAPKLLIYKASSLASGAPSRFSGSGSGTDFTLTISSLQPDDFATYYCQQYSNYPLTFGGGTKLEIK

binding result [1]: no binding
B7: C32-IgG1 (antibody, V domains shown)
VH: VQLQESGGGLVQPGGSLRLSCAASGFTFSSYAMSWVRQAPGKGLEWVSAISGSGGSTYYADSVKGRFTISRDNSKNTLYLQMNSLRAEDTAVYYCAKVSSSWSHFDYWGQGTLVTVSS
VL: DVVMTQSPSTLSASVGDRVTITCRASQYISNWLAWYQQKPGKAPKLLIYKASSLESGVPSRFSGSGSGTEFTLTISSLQPEDFATYYCQESYNTPLFTFGPGTKLEIKR
notes: Full length human IgG1; also called C32 (IgG1 format)

binding result (mouse IL-6): binds
B8: VH4 anti-IL-6 human IgG1 (antibody, V domains shown)
VH: EVQLVQSGGGVVQPGESLRLSCAASGFTFSSYSMNWVRQAPGKGLEWVSVIYSGGSTYYADSVKGRFTISRDNSKNTLYLQMNSLRAEDTAVYYCAREVYHSSGYDDAFDIWGRGTMVTVSS
VL: DIQMTQSPSTLSASIGDRVTITCRASEGIYHWLAWYQQKPGKAPKLLIYKASSLASGAPSRFSGSGSGTDFTLTISSLQPDDFATYYCQQYSNYPLTFGGGTKLEIK
notes: Human IgG1; also called VH4-IgG1; anti-IL-6 VH4

EC50 [6]: 1 nM
B9: F12-IgG1 (IgG1 anti-TfR1 F12 antibody) (antibody, V domains shown)
VH: QVQLQESGGGLVQPGGSLRLSCAASGFSFNTYTMHWVRQAPGKGLEWVADIAYDGSTKYYADSVKGRFTISRDNAKNSLYLQMNSLRAEDTAVYYCARDAVAGEGYFDLWGRGTLVTVSS
VL: QSALTQDPAVSVALGQTVRITCQGDSLRSYYASWYQQLPGTAPKLLIYRNNQRPSGVPDRFSGSKSGTSASLAISGLRSEDEADYYCAAWDDSLSAWVFGGGTKLTVLG
notes: Human IgG1; Produced as monoclonal control beside the tetravalent BsAb; also called F12 (anti TfR1 Human IgG1); parental mAb anti-TfR1 F12
viability of Raji cells, 3 days, IC50 [3]: 0.8 nM
viability of XG6 and XG7 cells in 1% FCS, 3 days, IC50 of the combination F12 + VH4 [3]: 1 nM
viability of XG6 cells, 5 days, IC50 [3]: 4 nM

binding result [2]: binds
B10: G9 scFv2-Fc (Fc fusion)
chain: QVQLVESGGGLVEPGGSLRLSCAASGFTFSNYAINWVRQAPGKGLEWVANIHHDGNGKYYVDSVEGRFTISRDNAKNSLYLQMDSLRAEDTAIYYCARDGYGGYLDLWGQGTLVTVSSGGGGSGGGGSGGGGSSELTQDPAVSVALGQTVRITCQGDSLRSYYASWYQQKPGQAPVLVIYGKNNRPSGIPDRFSGSGSGNTASLTITGAQAEDEADYYCAAWDDSLSGPVFGGGTKVTVLG
notes: Bivalent (scFv)2-Fc; also called G9-Fc; not shown: Fc fragment of human IgG1 (pFUSE-hFc2(IL2ss) vector)

binding result [2]: binds
binding result [1]: binds
B11: F12 scFv2-Fc (Fc fusion)
chain: QVQLQESGGGLVQPGGSLRLSCAASGFSFNTYTMHWVRQAPGKGLEWVADIAYDGSTKYYADSVKGRFTISRDNAKNSLYLQMNSLRAEDTAVYYCARDAVAGEGYFDLWGRGTLVTVSSGGGGSGGGGSGGGGSQSALTQDPAVSVALGQTVRITCQGDSLRSYYASWYQQLPGTAPKLLIYRNNQRPSGVPDRFSGSKSGTSASLAISGLRSEDEADYYCAAWDDSLSAWVFGGGTKLTVLGA
notes: Bivalent (scFv)2-Fc; also called F12-Fc; not shown: Fc fragment of human IgG1 (pFUSE-hFc2(IL2ss) vector)

binding result [2]: binds
B12: H9 scFv2-Fc (Fc fusion)
chain: QVQLAESGGGLVKPGGSLRLSCAASGFTFSDYYMSWIRQAPGKGLEWVSYISTSGSSIYYVDSVKGRFTISRDNAKNSLYLQMDSLRDDDTAVYYCARDLHGDYAFDSWGQGTLVTVSSGGGGSGGGGSGGGGSSELTQDPAVSVALGQTVRITCQGDSLRSYYASWYQQKPGQAPVLVIYGKNNRPSGIPDRFSGSKSGNSASLDISGLQSEDEADYYCATWDDNLSGPIFGGGTKVTVLG
notes: Bivalent (scFv)2-Fc; also called H9-Fc; not shown: Fc fragment of human IgG1 (pFUSE-hFc2(IL2ss) vector)
